# Measurements taken from publication PMC4192486, “The Importance of a Gatekeeper Residue on the Aggregation of Transthyretin” (The Journal of Biological Chemistry, 2014).
# Target: the molecule itself
# Assay: SEC; Superdex 75 on HPLC, absorbance at 280 nm; 100 μM peptide in buffer pH 5.0 (100 mM MES, 100 mM KCl) at 25 °C, aliquots at 0, 5, 10, 15 and 30 min of the aggregation reaction; soluble WT peptide at the same concentration as control
protein,measurement,value
"TTR 26–57 peptide bearing the K35L substitution (transthyretin (TTR), human, residues 26-57 with K35L; also called K35L peptide; 26–57 K35L; source: synthetic peptide; bought: Genemed Synthesis) peptide: not shown",stoichiometry N,10 to 15 units
